Source: publication PMC7793260, “MreC and MreD balance the interaction between the elongasome proteins PBP2 and RodA” (PLoS Genetics, 2020)
Numbering of substitutions follows the chain as printed.

Tests used:
Test in all cases: FRET or BRET; two-plasmid spectral FRET in E. coli LMC500 cells; mCherry fusion as acceptor, mKO fusion as donor; Gb4 medium, steady state at 28 C, 15 uM IPTG for two mass doublings, FAGA-fixed; acceptor FRET efficiency (EfA) by spectral unmixing
[1] = target: T1, PBP2 (wild type), fused to mKO or to mCherry (E. coli, UniProt P0AD65 1-633); conditions: partners not purified
T1 construct: PBP2, peptidoglycan transpeptidase of the E. coli elongasome, wild type; mKO-PBP2 in all others; also called mKO-PBP2^WT; mKO-PBP2; source: E. coli LMC500, expressed from plasmid (15 uM IPTG), in fixed cells; not shown: mKO (donor construct, pWA004) or mCherry (acceptor construct), N-terminal, kept
T1 sequence (looked up): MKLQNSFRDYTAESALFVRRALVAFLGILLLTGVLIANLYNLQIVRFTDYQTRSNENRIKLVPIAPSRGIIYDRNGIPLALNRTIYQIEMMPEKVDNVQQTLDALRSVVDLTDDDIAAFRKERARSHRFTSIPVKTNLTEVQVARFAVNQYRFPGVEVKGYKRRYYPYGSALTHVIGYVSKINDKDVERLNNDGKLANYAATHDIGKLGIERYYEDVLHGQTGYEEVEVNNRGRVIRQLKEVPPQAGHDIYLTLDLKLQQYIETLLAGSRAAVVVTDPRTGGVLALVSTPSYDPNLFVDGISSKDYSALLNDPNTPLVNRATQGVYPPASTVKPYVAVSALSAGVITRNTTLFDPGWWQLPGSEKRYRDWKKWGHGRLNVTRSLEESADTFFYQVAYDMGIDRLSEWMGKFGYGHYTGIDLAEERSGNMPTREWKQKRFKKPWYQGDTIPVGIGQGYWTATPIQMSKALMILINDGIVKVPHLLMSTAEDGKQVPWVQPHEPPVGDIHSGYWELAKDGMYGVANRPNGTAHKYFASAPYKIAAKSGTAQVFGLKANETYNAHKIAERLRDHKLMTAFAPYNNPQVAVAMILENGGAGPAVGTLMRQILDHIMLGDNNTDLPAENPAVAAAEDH

mKO-PBP2^L61R = target: T2, mKO-PBP2^L61R (E. coli, UniProt P0AD65 1-633, L61R); conditions: partners not purified
T2 construct: PBP2 of E. coli with L61R (hyperactive variant); made from pWA004 by mutagenesis PCR; also called hyperactive PBP2^L61R; source: E. coli LMC500, expressed from plasmid (15 uM IPTG), in fixed cells; not shown: mKO, N-terminal, kept
T2 sequence (looked up): T1 sequence (looked up) with L61R

mKO-^MalF37PBP2 = target: T3, mKO-^MalF37PBP2 (E. coli, UniProt P02916 1-37; P0AD65 46-633); conditions: partners not purified
T3 construct: MalF of E. coli, the first 37 residues (cytoplasmic N-terminus and transmembrane helix), amplified from the MG1655 genome; PBP2 of E. coli excluding the first 45 residues (NT and TMH removed, periplasmic domain kept); also called PBP2 with the NT and TMH of MalF; source: E. coli LMC500, expressed from plasmid (15 uM IPTG), in fixed cells; not shown: mKO, N-terminal, kept
T3 chain (looked up): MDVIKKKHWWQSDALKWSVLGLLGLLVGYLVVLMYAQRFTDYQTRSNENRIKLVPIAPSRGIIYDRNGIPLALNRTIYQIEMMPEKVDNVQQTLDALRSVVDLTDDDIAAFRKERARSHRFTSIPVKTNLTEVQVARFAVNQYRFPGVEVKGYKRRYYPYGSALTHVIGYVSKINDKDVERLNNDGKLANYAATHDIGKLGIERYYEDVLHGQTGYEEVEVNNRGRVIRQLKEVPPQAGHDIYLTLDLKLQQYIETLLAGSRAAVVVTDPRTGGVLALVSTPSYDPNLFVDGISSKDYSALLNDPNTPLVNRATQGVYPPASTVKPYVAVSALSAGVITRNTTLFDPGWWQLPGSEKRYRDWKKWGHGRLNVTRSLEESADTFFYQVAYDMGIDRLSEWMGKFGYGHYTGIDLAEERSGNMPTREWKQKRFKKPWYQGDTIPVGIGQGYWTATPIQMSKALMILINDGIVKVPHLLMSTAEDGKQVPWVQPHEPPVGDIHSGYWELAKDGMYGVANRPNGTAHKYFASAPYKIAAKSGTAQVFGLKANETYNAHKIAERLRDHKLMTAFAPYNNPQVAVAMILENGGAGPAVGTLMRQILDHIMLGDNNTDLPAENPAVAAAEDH

[2] = target: the molecule itself

B1: RodA (wild type), fused to mCherry or to mKO (enzyme, E. coli, UniProt P0ABG7 1-370, looked up)
chain: MTDNPNKKTFWDKVHLDPTMLLILLALLVYSALVIWSASGQDIGMMERKIGQIAMGLVIMVVMAQIPPRVYEGWAPYLYIICIILLVAVDAFGAISKGAQRWLDLGIVRFQPSEIAKIAVPLMVARFINRDVCPPSLKNTGIALVLIFMPTLLVAAQPDLGTSILVALSGLFVLFLSGLSWRLIGVAVVLVAAFIPILWFFLMHDYQRQRVMMLLDPESDPLGAGYHIIQSKIAIGSGGLRGKGWLHGTQSQLEFLPERHTDFIFAVLAEELGLVGILILLALYILLIMRGLWIAARAQTTFGRVMAGGLMLILFVYVFVNIGMVSGILPVVGVPLPLVSYGGSALIVLMAGFGIVMSIHTHRKMLSKSV
notes: RodA, peptidoglycan glycosyltransferase of the E. coli elongasome; wild-type rodA gene; mCh-RodA in all others; also called mCh-RodA; mKO-RodA; source: E. coli LMC500, expressed from plasmid (15 uM IPTG), in fixed cells; not shown: mCherry (acceptor construct, pSAV047-RodA) or mKO (donor construct, pXL56), N-terminal, kept
Question: Which results are given for B1?
Answer: EfA (acceptor FRET efficiency) [1]: 12.7%; EfA (acceptor FRET efficiency) (mKO-PBP2^L61R): 10.8%; EfA (acceptor FRET efficiency) (mKO-^MalF37PBP2): 8.2%; EfA (acceptor FRET efficiency) [2]: 5.5%
